Read-outs that look alike come from different tables or passages of the source.
How the values were obtained:
Experiment in all cases: BLI
PAD M141W [1] = target: PAD M141W (UniProt Q96QC0)
PAD A114K [2] = target: PAD A114K (UniProt Q96QC0)
PAD K122A [3] = target: PAD K122A (UniProt Q96QC0)
PAD K122A [4] = target: PAD K122A (UniProt Q96QC0); remark: listed apart in the source
PAD M141F [5] = target: PAD M141F (UniProt Q96QC0)
PAD M141W [6] = target: PAD M141W (UniProt Q96QC0); remark: listed apart in the source
PAD A114K [7] = target: PAD A114K (UniProt Q96QC0); remark: listed apart in the source
PAD K118A = PAD K118A (UniProt Q96QC0)
PAD K118A, sequence (Q96QC0 1-148 K118A): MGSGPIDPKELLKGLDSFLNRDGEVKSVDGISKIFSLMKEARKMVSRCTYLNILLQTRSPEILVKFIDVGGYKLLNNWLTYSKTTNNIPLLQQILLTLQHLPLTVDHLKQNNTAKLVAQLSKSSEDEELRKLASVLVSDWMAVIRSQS

PAD K109A = PAD K109A (UniProt Q96QC0)
PAD K109A, sequence (Q96QC0 1-148 K109A): as the sequence (Q96QC0 1-148 K118A) above, with K109A, A118K counted along it

PAD M141F [8] = target: PAD M141F (UniProt Q96QC0); remark: listed apart in the source

PAD K122A, sequence (Q96QC0 1-148 K122A): as the sequence (Q96QC0 1-148 K118A) above, with A118K, K122A counted along it
PAD M141W, sequence (Q96QC0 1-148 M141W): as the sequence (Q96QC0 1-148 K118A) above, with A118K, M141W counted along it
PAD M141F, sequence (Q96QC0 1-148 M141F): as the sequence (Q96QC0 1-148 K118A) above, with A118K, M141F counted along it
PAD A114K, sequence (Q96QC0 1-148 A114K): as the sequence (Q96QC0 1-148 K118A) above, with A114K, A118K counted along it

“biotinyl-MB0 peptide (MYC 16-33) (from UniProt P01106-2 16-33)” gave a Kd (PAD M141W [1]) of 24 µM, a Kd (PAD A114K [2]) of 52 µM and a Kd (PAD K122A [3]) of 35 µM. It also gave a Kd (PAD K122A [4]) of 35 µM, a Kd (PAD M141F [5]) of 19 µM and a Kd (PAD M141W [6]) of 24 µM. The Kd (PAD A114K [7]) was 52 µM, the Kd (PAD K118A) was 12 µM and the Kd (PAD K109A) was 27 µM. For the same substance, the Kd (PAD M141F [8]) was 19 µM.
